The subject of one assay is KV1.6. The note with it: cited from earlier work. The text has this: In order to characterize the potency and selectivity profile, concentration-response curves were constructed for BcsTx1. […] A concentration-response curve was also constructed to determine the concentration at which BcsTx2 blocked half of the channels.
In another assay the test system is KV1.1-4 and KV1.6. To be noted: cited from earlier work. How it is done: (§1) The pharmacological profile of BcsTx-1 and -2 were determined on a wide range of twelve KV channels (rKV1.1, rKV1.2, hKV1.3, rKV1.4, rKV1.5, rKV1.6, rKV2.1, rKV3.1, rKV4.2, rKV4.3, hERG and the insect channel Shaker IR; r: rat and h: human). Channels were expressed in X. laevis oocytes, and their currents were recorded by using two-electrode voltage-clamp technique. BcsTx1 (0.5 µM) inh ...

The test system of a further assay is KV1.3 channels. To be noted: cited from earlier work. As to the method:
as §1

A further assay concerns KV3.2 channels. The note with it: cited from earlier work.
Assay [1] has as its system intermediate conductance K (Ca) channels. To be noted: cited from earlier work.
For assay [2], the target named is Shaker IR (insect) (UniProt P08510).
Chain of Shaker IR (insect) (P08510 whole entry): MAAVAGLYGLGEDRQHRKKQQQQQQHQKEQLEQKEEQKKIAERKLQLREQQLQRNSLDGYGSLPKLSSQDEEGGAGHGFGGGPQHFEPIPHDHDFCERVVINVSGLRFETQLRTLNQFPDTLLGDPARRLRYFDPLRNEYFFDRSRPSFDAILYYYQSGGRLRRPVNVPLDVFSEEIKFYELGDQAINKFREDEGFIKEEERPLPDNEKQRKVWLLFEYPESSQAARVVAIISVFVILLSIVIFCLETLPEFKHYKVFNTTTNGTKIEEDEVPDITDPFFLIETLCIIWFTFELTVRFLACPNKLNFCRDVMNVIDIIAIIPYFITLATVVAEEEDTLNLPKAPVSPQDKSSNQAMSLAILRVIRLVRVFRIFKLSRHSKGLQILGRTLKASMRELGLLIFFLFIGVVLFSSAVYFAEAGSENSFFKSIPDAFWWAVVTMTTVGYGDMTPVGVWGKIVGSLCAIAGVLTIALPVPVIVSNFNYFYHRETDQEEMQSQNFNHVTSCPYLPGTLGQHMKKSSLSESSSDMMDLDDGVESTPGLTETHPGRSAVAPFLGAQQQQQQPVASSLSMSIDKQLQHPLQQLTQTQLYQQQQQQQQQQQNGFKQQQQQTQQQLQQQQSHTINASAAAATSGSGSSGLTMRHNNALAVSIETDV
The target in assay [3] is T1, hKV1.3 (Homo sapiens, UniProt P22001).
T1 sequence (P22001 whole entry): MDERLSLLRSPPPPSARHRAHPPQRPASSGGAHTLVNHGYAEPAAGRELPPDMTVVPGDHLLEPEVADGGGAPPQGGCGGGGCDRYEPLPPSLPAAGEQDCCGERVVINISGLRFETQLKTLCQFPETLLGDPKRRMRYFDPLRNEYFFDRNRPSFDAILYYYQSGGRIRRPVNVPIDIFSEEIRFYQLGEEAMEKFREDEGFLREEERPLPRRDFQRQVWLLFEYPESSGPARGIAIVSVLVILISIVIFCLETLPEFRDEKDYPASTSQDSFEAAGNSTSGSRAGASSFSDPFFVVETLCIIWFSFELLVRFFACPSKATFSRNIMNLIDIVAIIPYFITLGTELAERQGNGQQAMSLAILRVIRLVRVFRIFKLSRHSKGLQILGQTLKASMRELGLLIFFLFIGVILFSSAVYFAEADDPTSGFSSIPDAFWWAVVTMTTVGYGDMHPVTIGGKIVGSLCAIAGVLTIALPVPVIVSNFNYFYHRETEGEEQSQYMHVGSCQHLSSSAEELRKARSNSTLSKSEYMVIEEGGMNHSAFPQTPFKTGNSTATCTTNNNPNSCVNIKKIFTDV
The target in assay [4] is rKV1.1 (rat) (UniProt P10499).
Chain of rKV1.1 (rat) (P10499 whole entry): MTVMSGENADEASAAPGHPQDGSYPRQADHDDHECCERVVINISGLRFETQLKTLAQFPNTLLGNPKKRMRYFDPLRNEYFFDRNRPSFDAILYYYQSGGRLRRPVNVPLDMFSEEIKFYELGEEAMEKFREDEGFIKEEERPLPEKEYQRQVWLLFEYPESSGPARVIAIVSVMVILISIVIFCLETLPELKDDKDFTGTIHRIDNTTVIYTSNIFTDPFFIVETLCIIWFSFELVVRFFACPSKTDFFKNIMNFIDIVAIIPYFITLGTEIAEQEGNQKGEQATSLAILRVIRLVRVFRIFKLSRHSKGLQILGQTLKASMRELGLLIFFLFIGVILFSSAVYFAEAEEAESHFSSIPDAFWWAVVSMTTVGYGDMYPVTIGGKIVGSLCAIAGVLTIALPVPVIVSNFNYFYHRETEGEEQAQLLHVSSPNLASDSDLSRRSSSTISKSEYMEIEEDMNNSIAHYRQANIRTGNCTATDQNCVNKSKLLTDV
The target of assay [5] is rKV1.2 (rat) (UniProt P63142).
Chain of rKV1.2 (rat) (P63142 whole entry): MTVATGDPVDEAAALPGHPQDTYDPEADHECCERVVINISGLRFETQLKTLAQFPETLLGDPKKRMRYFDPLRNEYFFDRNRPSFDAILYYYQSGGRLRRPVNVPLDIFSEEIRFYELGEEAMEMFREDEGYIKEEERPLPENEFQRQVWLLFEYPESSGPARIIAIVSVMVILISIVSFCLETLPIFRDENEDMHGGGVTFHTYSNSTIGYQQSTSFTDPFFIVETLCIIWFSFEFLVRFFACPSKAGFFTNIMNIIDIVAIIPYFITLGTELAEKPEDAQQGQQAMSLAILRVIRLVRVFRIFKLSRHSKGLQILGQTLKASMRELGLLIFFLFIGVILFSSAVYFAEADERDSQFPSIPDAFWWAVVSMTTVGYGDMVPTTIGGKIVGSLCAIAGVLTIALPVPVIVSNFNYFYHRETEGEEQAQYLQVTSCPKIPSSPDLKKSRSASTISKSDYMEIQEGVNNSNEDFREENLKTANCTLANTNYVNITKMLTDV
Assay [6] concerns the target rKV1.6 (rat) (UniProt P17659).
Assay [7] has as its target Shaker IR (insect) (UniProt P08510). This is another data set of the same source.
Assay [8] has as its target T1, hKV1.3. The source holds these as a separate data set.
Assay [9] has as its target rKV1.1 (rat) (UniProt P10499). This is another data set of the same source.
Assay [10] concerns the target rKV1.2 (rat) (UniProt P63142). The source holds these as a separate data set.
Assay [11] concerns the target rKV1.6 (rat) (UniProt P17659). This is another data set of the same source.

Where no end group is shown, it is not given here.

We go through 3 substances from publication PMC3705364, “Biochemical and Electrophysiological Characterization of Two Sea Anemone Type 1 Potassium Toxins from a Geographically Distant Population of Bunodosoma caissarum” (Marine Drugs, 2013).

Chain of rKV1.6 (rat) (P17659 whole entry): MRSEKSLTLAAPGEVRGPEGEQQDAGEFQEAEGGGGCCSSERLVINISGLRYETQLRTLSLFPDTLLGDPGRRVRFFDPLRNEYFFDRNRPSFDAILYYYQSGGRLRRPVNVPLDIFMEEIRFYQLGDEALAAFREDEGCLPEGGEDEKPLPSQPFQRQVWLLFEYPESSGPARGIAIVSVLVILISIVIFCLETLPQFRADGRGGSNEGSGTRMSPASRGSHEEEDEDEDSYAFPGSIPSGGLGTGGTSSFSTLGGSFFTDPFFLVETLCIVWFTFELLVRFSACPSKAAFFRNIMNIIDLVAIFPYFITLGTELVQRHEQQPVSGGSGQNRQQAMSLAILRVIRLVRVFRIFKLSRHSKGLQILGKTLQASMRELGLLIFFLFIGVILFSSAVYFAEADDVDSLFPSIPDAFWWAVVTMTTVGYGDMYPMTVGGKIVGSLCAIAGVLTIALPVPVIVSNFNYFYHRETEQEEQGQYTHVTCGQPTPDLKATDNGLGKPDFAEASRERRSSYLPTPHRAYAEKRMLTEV

By IC50 is commonly meant the concentration that gives 50% inhibition. In the case of “MgTX: toxin from Centruroides margaritatus (TIINVKCTSPKQCLPPCKAQFGQSAGAKCMNGKCKCYPH; ends and bridges not checked; cysteine pairing not given here; UniProt P40755 1-39, looked up)”, in the assay on KV1.6, the IC50 is 5 nM and the “binding affinity to KV1.6 (in words)” value is “binds with very high affinity to KV1.6”.
On to “ShK: type 1 sea anemone toxin from Stichodactyla helianthus (Swiss-Prot P29187)”, for which the “block of KV1.1-4 and KV1.6 (in words)” value in the assay with KV1.1-4 and KV1.6 is “blocks KV1.1-4 and KV1.6”. The “block of KV1.3 (in words)” value in the assay on KV1.3 channels is given as “block KV1.3 channels”. The “activity against KV3.2 (in words)” value with KV3.2 channels is given as “shows activity against KV3.2 channels”. In addition, the “block of intermediate conductance K (Ca) channels (in words)” value in assay [1] is on record as “block intermediate conductance K (Ca) channels”.
Consider “BcsTx2 (from UniProt C0HJC3 1-37) (peptide)”, for which the IC50 of block of the channel's K+ current, two-electrode voltage clamp on X. laevis oocytes, concentration-response curve was found to be 49.1 nM in the assay with Shaker IR (insect) [2]; 13.1 nM with hKV1.3 [3]; 14.4 nM in the assay with rKV1.1 (rat) [4]; 80.4 nM with rKV1.2 (rat) [5]; 7.76 nM in the assay with rKV1.6 (rat) [6]. Further, the percent inhibition of the channel's current by 3 µM BcsTx2, two-electrode voltage clamp on X. laevis oocytes with Shaker IR (insect) [7] was 94%; with hKV1.3 [8] it was 100%; with rKV1.1 (rat) [9], 96%; with rKV1.2 (rat) [10], 100%; with rKV1.6 (rat) [11], 98%.
